Laboratory results: patent US20260275317A1, “CHIMERIC ENDOLYSINS WITH ACTIVITY AGAINST STREPTOCOCCI AND STAPHYLOCOCCI” (UNIVERSITEIT GENT, priority 2023, published 2026)

B1: NC8: chimeric endolysin SEQ ID NO: 20; CPP + PlySs2 CHAP + Ply1081 CW_7 + PlySs9 amidase_3 (protein)
chain: MRQIKWFQNRRMKWKKGATTVNEALNNVRAQVGSGVSVGNGECYALASWYERMISPDATVGLGAGVGWVSGAIGDTISAKNIGSSYNWQANGWTVSTSGPFKAGQIVTLGATPGNPYGHVVIVEAVDGDRLTILEQNYGGKRYPVRNYYSAASYRQQVVHYITPPGTVAQSAPNLAGAGIDQLVQETLAGKYGNGEQRKAALGSQYQAVMAVINGKATAPKKTVDQLAQEVIQGKHGNGEDRKKSLGPDYDAVQKRVTEILKGSPSGNIPKTPSDAPKSEVVNSSTEPKTEETGANGKATDTKITKGSGKHLVICGHGQGRTGYDPGAVNAKLGITEAGKVRELSKLMSKYSGQQIDFITEQNVYDYRSITSIGKGYDSITELHFNAFNGSAKGTEVLIQSSLEADKEDMAILSLLSRYFQNRGIKKVDWLYNANQAASRGYTYRLVEIAFIDNEQDMAIFENKKEDIAKGLVSAITGVEVKTIVPSPPSSTVGSSGTPSKSIYLVGDSLRVLPHATHYQTGQKIANWVKGRTYKILQVKNVHQSNSKRAYLLDGIKSWVLEQDVEGTTKGHSKYHHHHHH
B2: NC3: chimeric endolysin SEQ ID NO: 15; CPP + PlySs2 CHAP + Ply1081 CW_7 + PlySs9 amidase_3 (protein)
chain: MGFGCNGPWNEDDLRCRNHCKSIKGYKGGYCAKGGFVCKCYGATTVNEALNNVRAQVGSGVSVGNGECYALASWYERMISPDATVGLGAGVGWVSGAIGDTISAKNIGSSYNWQANGWTVSTSGPFKAGQIVTLGATPGNPYGHVVIVEAVDGDRLTILEQNYGGKRYPVRNYYSAASYRQQVVHYITPPGTVAQSAPNLAGAGIDQLVQETLAGKYGNGEQRKAALGSQYQAVMAVINGKATAPKKTVDQLAQEVIQGKHGNGEDRKKSLGPDYDAVQKRVTEILKGSPSGNIPKTPSDAPKSEVVNSSTEPKTEETGANGKATDTKITKGSGKHLVICGHGQGRTGYDPGAVNAKLGITEAGKVRELSKLMSKYSGQQIDFITEQNVYDYRSITSIGKGYDSITELHFNAFNGSAKGTEVLIQSSLEADKEDMAILSLLSRYFQNRGIKKVDWLYNANQAASRGYTYRLVEIAFIDNEQDMAIFENKKEDIAKGLVSAITGVEVKTIVPSPPSSTVGSSGTPSKSIYLVGDSLRVLPHATHYQTGQKIANWVKGRTYKILQVKNVHQSNSKRAYLLDGIKSWVLEQDVEGTTKGHSKYHHHHHH

Tested on: S. uberis, S. aureus, S. agalactiae and S. dysgalactiae
Test: 2 h time killing assay in PBS and UHT-milk, relative in vitro scoring
Assay type: cell-based
Settings: 0.25 μM
Method: Concerning the time killing assay, an overnight bacterial culture was diluted 1:10 for S. uberis, S. agalactiae-& dysgalactiae or 1:100 for S. aureus in PBS or UHT-pasteurized whole cow's milk. A volume of 10 μL thereof was combined with an equal amount of chimeric endolysin in PBS (or only PBS as negative control) in triplicate and incubated in a covered 96-well microtiter plate at 37° C. for 2 h. […] Finally, these fractions were serially diluted 1:10 in PBS. 5 μL of each fraction was spotted on TSA or BHI-agar and incubated overnight at 37° C. The following day, colony forming units (CFU) were counted and converted to CFU/mL to calculate logarithmic reductions in comparison with the negative control. The relative scores were calculated by dividing the observed logarithmic reduction for each endolysin by the maximal reduction observed for that specific condition and strain. Next, this value was divided by the number of conditions and strains tested (i.e., 8=4 bacterial strains×2 conditions (PBS/UHT-milk)). As such, the best performing candidate in each individual assay received a score of 0.125 (=(1/1)/8). […] Turbidity reduction assays were performed by combining 100 μL of overnight grown bacterial cells with an equal volume of purified enzyme at the desired concentration. Bacterial cells were washed with PBS and resuspended in a 1:1 ratio with enzyme to an OD600 of approximately 1.0. Next, the OD600 was measured using a Tecan infinite 200 PRO plate reader (Tecan, Switzerland) every 15 seconds at 37° C., shaking the 96-well plate between each measurement.
Stationary phase S. uberis 0140J or S. aureus N305 and one randomly chosen clinical isolate of S. uberis, S. aureus, S. agalactiae and S. dysgalactiae were challenged with a final concentration of 0.25 μM endolysin in a 2 h time killing assay (TKA) in both phosphate buffered saline (PBS) and ultra-high temperature pasteurized whole cow's milk (UHT-milk).

Row | Molecule | ranking by cumulative relative in vitro score
1 | B1 | overall best performing candidates
2 | B2 | overall best performing candidates
